What is called stoichiometry N is the number of molecules, sites or subunits per partner or assembly.

These results are taken from PMC6145873.

Test [1] deals with TtPilFc, C-terminal tryptic fragment of Thermus thermophilus PilF (N2, CTD and Zn-binding domains) (Thermus thermophilus HB8). The test can be described thus: crystal structure; TtPilFc with bound ATP/Mg2+, space group C2, 2.44 Å; crystals at 20 °C in 0.2 M sodium bromide, 0.1 M Bis-Tris propane pH 6.5, 20% PEG 3350.
Test [2] deals with Thermus thermophilus PilF type IVa pilus assembly ATPase, full length (Thermus thermophilus HB8). Description: cryo-EM structure; single particle reconstructions of full length TtPilF as apoprotein and with 1 mM AMPPNP; ~200 μg/ml; 25 mM HEPES pH 7.5, 150 mM NaCl, 5 mM MgCl2, 5% glycerol; C2 symmetry applied.

The substance “TtPilFc, C-terminal tryptic fragment of Thermus thermophilus PilF (N2, CTD and Zn-binding domains) (domain or fragment)” showed a stoichiometry N in test [1] of 6.

In turn, “Thermus thermophilus PilF type IVa pilus assembly ATPase, full length (enzyme)” had a stoichiometry N in test [2] of 6.
